Positions count from the first letter of the chain named. Read-outs that look alike come from different tables or passages of the source.

Assay [1] has as its target T1, human pulmonary SP-A protein in human lung tissue (Homo sapiens, endogenous lung tissue, UniProt Q8IWL2).
The target in assay [2] is T2, recombinant human SP-A protein (pulmonary surfactant protein A) (Homo sapiens, UniProt Q8IWL2).
T2 construct: human pulmonary surfactant protein A; gene provided by Shanghai YouLong Biotech; About 41 kDa on SDS-PAGE, which would fit a fusion with the carrier of the pET32 vector; also called purified recombinant SP-A; PET32-SPA; source: E. coli BL21 (PET32-SPA), purified
As to the kind of experiment: BLI; ForteBio's Octet System; Nb4 and purified recombinant human SP-A; who was immobilised is not stated. To be noted: both partners purified. For orientation: BLI is a label-free optical method that tracks binding on a fibre tip over time.

The target of assay [3] is T1, human pulmonary SP-A protein in human …. Put plainly: far-Western, overlay or dot blot; human lung tissue homogenate proteins separated by SDS-PAGE, transferred to a PVDF membrane and probed with Nb4 overnight at 4 °C; detected with anti-His-HRP. To be noted: one partner purified.
The target of assay [4] is T3, SP-A in human lung epithelial A549 cells (Homo sapiens, endogenous in A549 cells, UniProt Q8IWL2).
T3 construct: human pulmonary surfactant protein A, endogenous in A549 cells; source: endogenous, A549 cells, fixed
Put plainly: immunostaining of cells or tissue; fixed A549, L-02 and 293T cells stained with Nb4-FITC; confocal microscopy. To be noted: one partner purified.

T1 sequence (Q8IWL2 21-248): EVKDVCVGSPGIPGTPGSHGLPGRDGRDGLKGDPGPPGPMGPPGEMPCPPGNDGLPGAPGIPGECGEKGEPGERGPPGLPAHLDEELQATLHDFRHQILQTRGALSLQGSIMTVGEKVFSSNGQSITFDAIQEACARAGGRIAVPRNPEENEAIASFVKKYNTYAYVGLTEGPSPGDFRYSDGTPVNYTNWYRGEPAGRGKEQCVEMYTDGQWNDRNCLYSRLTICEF
T3 sequence (Q8IWL2 21-248): as above
T2 sequence (Q8IWL2 21-248): as above

B1: Nb17 (VHH)
VHH: QLQLVESGGGLVQPGGSLRLACAASGFNLDDYADIGWFRQAPGKERERVLCITISDGTTYYEDSGKGRFSISTDIAKNTVFLQMDSLKAEDTAVYYCAGDPAPFCLYNTYVPRTWGQGTQVTVSS
Consider B1, for which the binding result in assay [1] is reported as “binds”.

B2: Nb29 (VHH)
VHH: QVKLVESGGGSVQAGGSLRLSCTASGSDYRWMYIARFRQCPGKEREGVAAIYTDDTDDSSPIYATSAKGRFTISQDKDKNAVYLQMNSPKPEDTAMYYCAARAFGGTWSLSSPDDFSAWGQGTQVTVSS
On to B2, for which the binding result in assay [1] is “binds”.

B3: Nb38 (VHH)
VHH: B2 VHH with R19I
With B3, in assay [1], the binding result is “binds”.

B4: Nb15 (VHH)
VHH: QLQLVESGGGLVQPGGSLSVSCAVRGRDLDYYVIGWFRQAPGKEREGVSCINNSDDTTYYSDSVKGRFTISRDHAKNTVYLQMNNLKPEDTALYYCAADFDRLDFTVKAMCVMKFFYYWGQGTQVTVSS
On to B4, for which the binding result in assay [1] is “binds”.

B5: Nb6 (VHH)
VHH: QLQLVESGGDLAQPGGSLTLSCTASGTFKIYSMGWYRRPQRELVAEMLNGGDTQYSDSVKGRFTISRTNNTMYLHMNNLKPEDTAVYYCNLQDWYSEPAGDYWGPGTQVTVSS
Regarding B5, in assay [1], the binding result is “binds”.

B6: Nb4 (anti-human pulmonary SP-A nanobody) (VHH)
VHH: QLQLVESGGGLVQPGGSLRLSCAASEFTLDYYEIGWFRQAPGKDREGLSCIGYSDRIAYYSESVKGRFTTVRDDATSTVSLYMDMMIPEDTGTYYCAGSVVEPYELLPAAEYDYWGQGTRVTVSS
notes: About 19 kDa on SDS-PAGE; also called Nb4-His; source: E. coli BL21 (pET-26b (+)-VHH), purified
In general, Kd refers to a measure of binding affinity in units of concentration. Take B6: in assay [2], the Kd stood at 748 nM. Further, the binding result in assay [3] is on record as “binds”.

B7: Nb4-FITC (VHH)
VHH: B6 VHH
notes: as the VHH chain of m1; Same nanobody as m1, with a FITC label; also called Nb4 labeled with FITC; source: E. coli BL21 (pET-26b (+)-VHH), purified, labeled with FITC
B7: the binding result in assay [4] was “binds”.

B8: Nb11 (VHH)
VHH: QLQLVESGGGLVQPGGSLRLSCTASKFHLDSYAVAWFRQTPGKEREAVSFINTSDDVTYFADSVKGRFTISRDNSKNTVYLQMNVLKPEDTSIYVCAAVRSPGPTGPSMQPMWSVPDLYDYWGQGTQVTVSS
As for B8, the binding result in assay [1] is on record as “binds”.

B9: Nb43 (VHH)
VHH: QLQLVESGGGLVQSGGSLRLSCAASGFTFNDYRMSWVRQAPGKGLEWVSDINSGGSSTYYADSVKGRFTVSRDNAKNTLYLQMNSLKPEDTAIYYCVALLGRGCSGLVQGAFGPWGQGTQVTVSS
Regarding B9, the binding result in assay [1] is recorded as “binds”.

The record behind these values is PMC5431231, “Identification of a nanobody specific to human pulmonary surfactant protein A” (Scientific Reports, 2017).
